From patent publication US20220267451A1
Values belong to the molecule of their own block, whether it stands above or below them.

Target: recombinant IGF-1R extracellular domain (ECD) (UniProt P08069)
Test: SPR; antibody captured by immobilized anti-Fc, IGF-1R-ECD as analyte, global fit to single site model

Kd: 2.2 nM
koff: 0.00039 s⁻¹
kon: 180000 M⁻¹ s⁻¹
Molecule: teprotumumab (antibody)

Kd: 0.57 nM
koff: 5.1e-05 s⁻¹
kon: 88000 M⁻¹ s⁻¹
B1: VRDN-1100 (antibody, V domains shown)
VH: QVQLVQSGAEVVKPGASVKLSCKASGYTFTSYWMHWVKQRPGQGLEWIGEINPSNGRTNYNQKFQGKATLTVDKSSSTAYMQLSSLTSEDSAVYYFARGRPDYYGSSKWYFDVWGQGTTVTVSS
VL: DVVMTQTPLSLPVSLGDPASISCRSSQSIVHSNVNTYLEWYLQKPGQSPRLLIYKVSNRFSGVPDRFSGSGAGTDFTLRISRVEAEDLGIYYCFQGSHVPPTFGGGTKLEIKR
